In article PMC3494873 (EMBO Molecular Medicine, 2012):
Read-outs that look alike come from different tables or passages of the source.

B1: Recombinant Fc-his-tag-E-cadherin (extracellular portion) (Fc fusion, UniProt P12830 155-709, looked up)
chain: DWVIPPISCPENEKGPFPKNLVQIKSNKDKEGKVFYSITGQGADTPPVGVFIIERETGWLKVTEPLDRERIATYTLFSHAVSSNGNAVEDPMEILITVTDQNDNKPEFTQEVFKGSVMEGALPGTSVMEVTATDADDDVNTYNAAIAYTILSQDPELPDKNMFTINRNTGVISVVTTGLDRESFPTYTLVVQAADLQGEGLSTTATAVITVTDTNDNPPIFNPTTYKGQVPENEANVVITTLKVTDADAPNTPAWEAVYTILNDDGGQFVVTTNPVNNDGILKTAKGLDFEAKQQYILHVAVTNVVPFEVSLTTSTATVTVDVLDVNEAPIFVPPEKRVEVSEDFGVGQEITSYTAQEPDTFMEQKITYRIWRDTANWLEINPDTGAISTRAELDREDFEHVKNSTYTALIIATDNGSPVATGTGTLLLILSDVNDNAPIPEPRTIFFCERNPKPQVINIIDADLPPNTSPFTAELTHGASANWTIQYNDPTQESIILKPKMALEVGDYKINLKLMDNQNKDQVTTLEVSVCDCEGAAGVCRKAQPVEAGLQIPA
B2: Recombinant angiopoietin-like 6 (ligand, UniProt Q8NI99 21-470, looked up)
chain: RAGAPRCTYTFVLPPQKFTGAVCWSGPASTRATPEAANASELAALRMRVGRHEELLRELQRLAAADGAVAGEVRALRKESRGLSARLGQLRAQLQHEAGPGAGPGADLGAEPAAALALLGERVLNASAEAQRAAARFHQLDVKFRELAQLVTQQSSLIARLERLCPGGAGGQQQVLPPPPLVPVVPVRLVGSTSDTSRMLDPAPEPQRDQTQRQQEPMASPMPAGHPAVPTKPVGPWQDCAEARQAGHEQSGVYELRVGRHVVSVWCEQQLEGGGWTVIQRRQDGSVNFFTTWQHYKAGFGRPDGEYWLGLEPVYQLTSRGDHELLVLLEDWGGRGARAHYDGFSLEPESDHYRLRLGQYHGDAGDSLSWHNDKPFSTVDRDRDSYSGNCALYQRGGWWYHACAHSNLNGVWHHGGHYRSRYQDGVYWAEFRGGAYSLRKAAMLIRPLKL

Key:
Assay in all cases: SPR
[1] = target: T1, Recombinant his-tag-α6β4 integrin (extracellular portions) (UniProt P23229-2 24-1011; P16144 28-710)
[2] = target: T1, Recombinant his-tag-α6β4 integrin …; remark: listed apart in the source
[3] = target: B1

Kd [1] [nM] | Kd [2] [nM] | Kd [3] [nM] | Binder
5.3 to 16.8 |  |  | B1
 | 2.03 | 29 | B2
